Results on one protein are retold here after paper PMC3169402, “Structure of fructose bisphosphate aldolase from Encephalitozoon cuniculi” (Acta Crystallographica Section F: Structural Biology and …, 2011).

The series deals with the molecule itself. The experiment in a line: crystal structure; sitting-drop vapour diffusion at 290 K, Bis-Tris propane pH 6.5, PEG 3350; phosphate-bound (2.00 Å) and FBP-bound (2.37 Å) forms, space group C222(1), data at 100 K.

B1: Fructose bisphosphate aldolase from Encephalitozoon cuniculi (enzyme, UniProt Q8SSM8 1-338, looked up)
chain: MMDCDHLLRLGMTAKKILENGKGILAADETPKTLGRRFEKLGITNTEENRRKFREILFSTKGIERYIGGVILNQETFEQTSGSGVPLTELLKKKGIEIGIKLDKGLIDYKEKEKISVGLEDLDLRCKSSAFKDATFAKWRSLFYFYDGIPSEDCINENCSILAKYAIICQKNGLVPIVEPEVFLEGDYSMKRSYEVTRQILSTLMKYLNYELVYIPGVLIKASYVTSGQLSNEKYTPKKVATFTLRALLSTIPCGIPGIVFLSGGHGSEDAIGFLNAINMERGCRTWSLSFSFARALTDGVLETWRGDDSNIEEAQKILLETSFKACRGAEGKLWDQE
notes: Fructose bisphosphate aldolase (class I), Encephalitozoon cuniculi, UniProt Q8SSM8, full-length protein, residues 1 to 338; In PDB 3mbf Lys221 forms a Schiff base with fructose 1,6-bisphosphate; also called EcFBPA; FBPA; source: E. coli BL21(DE3)R3 Rosetta, purified (HisTrap IMAC, Superdex 75 SEC)
Turning to B1, the stoichiometry N (in general, a count of units in the complex or per binding partner) turned out to be 2.
